Source: IntAct's records for PubMed 23454188

B1: GTPase IMAP family member 7 (Homo sapiens), Q8NHV1 (parent)
chain: MAESEDRSLRIVLVGKTGSGKSATANTILGEEIFDSRIAAQAVTKNCQKASREWQGRDLLVVDTPGLFDTKESLDTTCKEISRCIISSCPGPHAIVLVLLLGRYTEEEQKTVALIKAVFGKSAMKHMVILFTRKEELEGQSFHDFIADADVGLKSIVKECGNRCCAFSNSKKTSKAEKESQVQELVELIEKMVQCNEGAYFSDDIYKDTEERLKQREEVLRKIYTDQLNEEIKLVEEDKHKSEEEKEKEIKLLKLKYDEKIKNIREEAERNIFKDVFNRIWKMLSEIWHRFLSKCKFYSS

Variants of: B1
Conditions: with gima2_human GIMAP2, Q9UG22
gima2_human GIMAP2, Q9UG22, sequence (Q9UG22 whole entry): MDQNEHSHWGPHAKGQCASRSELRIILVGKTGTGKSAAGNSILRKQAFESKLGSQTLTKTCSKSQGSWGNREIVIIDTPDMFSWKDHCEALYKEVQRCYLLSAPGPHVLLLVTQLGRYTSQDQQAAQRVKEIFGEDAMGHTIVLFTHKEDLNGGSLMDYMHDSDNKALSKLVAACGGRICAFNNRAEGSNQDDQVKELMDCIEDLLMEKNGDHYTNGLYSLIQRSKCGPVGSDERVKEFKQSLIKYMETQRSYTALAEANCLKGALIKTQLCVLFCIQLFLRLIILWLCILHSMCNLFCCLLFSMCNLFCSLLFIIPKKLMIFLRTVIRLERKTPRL

effect of a mutation on the interaction	Variant
disrupting interaction strength	R103D
decreasing interaction strength	E136W
